Two molecules from US20230265183A1 (MABWELL SHANGHAI BIOSCIENCE, published 2023) can be followed below.

In assay [1] the target is T1, human Nectin-1(C-6His), Novoprotein Cat# C492 (human, UniProt Q15223 31-334, limits assumed).
T1 sequence: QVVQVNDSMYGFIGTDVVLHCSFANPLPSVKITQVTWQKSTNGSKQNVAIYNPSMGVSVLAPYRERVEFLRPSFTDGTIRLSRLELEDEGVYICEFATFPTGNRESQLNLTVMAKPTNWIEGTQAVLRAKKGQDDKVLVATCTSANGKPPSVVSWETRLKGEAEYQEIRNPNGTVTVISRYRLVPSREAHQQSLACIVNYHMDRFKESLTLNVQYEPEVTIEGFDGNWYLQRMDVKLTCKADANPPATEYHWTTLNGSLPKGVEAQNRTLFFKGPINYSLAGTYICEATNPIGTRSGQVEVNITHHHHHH
Briefly: ELISA, plate coated with 1 µg/ml human Nectin-1(C-6His), absorbance at 450 nm. The text names only a goat anti-rabbit HRP secondary antibody. As for the experimental part: (§1) Plates were coated with 1 µg/ml of the antigens and incubated at 4° C. overnight; next, antibodies serially diluted were added into the plates. Finally, the HRP-labeled secondary antibody was added, and absorbance at 450 nm was detected.

The target in assay [2] is T2, human Nectin-4 (human, UniProt Q96NY8 32-510).
T2 construct: whole, on cells; Cell-surface target of the FACS, endocytosis and proliferation assays (CHO-huNectin4 S8 cells, BT474 cells); the assay field says which cells; also called huNectin4; PVRL4
T2 sequence (looked up): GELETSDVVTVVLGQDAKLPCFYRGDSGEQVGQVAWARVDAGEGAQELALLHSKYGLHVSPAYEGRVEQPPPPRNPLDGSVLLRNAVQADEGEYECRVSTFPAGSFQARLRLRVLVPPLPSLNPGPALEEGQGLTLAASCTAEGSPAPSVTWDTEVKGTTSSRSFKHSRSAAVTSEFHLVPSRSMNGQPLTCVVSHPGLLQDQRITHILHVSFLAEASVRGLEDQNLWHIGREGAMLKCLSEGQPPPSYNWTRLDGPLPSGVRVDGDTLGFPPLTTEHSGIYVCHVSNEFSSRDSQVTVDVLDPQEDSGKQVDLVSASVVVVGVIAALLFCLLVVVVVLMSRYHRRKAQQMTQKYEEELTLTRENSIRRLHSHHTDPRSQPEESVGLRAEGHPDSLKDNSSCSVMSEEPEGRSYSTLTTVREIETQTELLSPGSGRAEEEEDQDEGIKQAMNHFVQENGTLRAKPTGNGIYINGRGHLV
Briefly: FACS on BT474 cells. On the procedure: (§2) The solutions of different concentrations were added to 384-well plates, 10 µl per well.
(§3) BT474 cells (breast cancer cells) expressing Nectin-4 on the cell surface were collected by centrifugation at 100 g at room temperature for 5 minutes, and then the cells were washed with PBS containing 0.5% BSA once and were centrifuged at 100 g at room temperature for 5 minutes. […] After incubation at 4° C. for 1 hour, fluorescently labeled goat anti-human IgG secondary antibody was added. After continued incubation at 4° C. for 1 hour, mean fluorescence readings of the cell populations were analyzed by a flow cytometer.
(§4) The experiment results of the binding of engineered humanized molecules of the present disclosure to BT474 cells by FACS assay are shown in panels 3B and 3C in FIG. 3 and Tables 6 and 7.

Assay [3] addresses T3, human Nectin-2(C-6His), Novoprotein Cat# C440 (human, UniProt Q92692 32-360, limits assumed).
T3 sequence: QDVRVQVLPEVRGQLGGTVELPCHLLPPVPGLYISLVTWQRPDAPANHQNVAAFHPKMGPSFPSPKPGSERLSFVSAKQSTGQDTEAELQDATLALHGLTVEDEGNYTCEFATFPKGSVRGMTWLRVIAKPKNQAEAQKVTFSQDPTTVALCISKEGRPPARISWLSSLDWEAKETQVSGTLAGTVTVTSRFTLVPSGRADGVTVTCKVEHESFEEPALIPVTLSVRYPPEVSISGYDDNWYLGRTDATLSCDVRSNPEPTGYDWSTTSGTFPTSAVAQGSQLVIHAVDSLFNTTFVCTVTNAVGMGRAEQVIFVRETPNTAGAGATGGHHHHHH
Nature of the assay: ELISA, plate coated with 1 µg/ml human Nectin-2(C-6His), absorbance at 450 nm. The text names only a goat anti-rabbit HRP secondary antibody. As for the experimental part:
as §1

Assay [4] deals with T4, His-tagged human NECTIN4 (human, UniProt Q96NY8 32-349).
T4 construct: Antigen of the BIAcore assay; also called antigen; recombinant NECTIN4 protein; not shown: His tag
T4 sequence: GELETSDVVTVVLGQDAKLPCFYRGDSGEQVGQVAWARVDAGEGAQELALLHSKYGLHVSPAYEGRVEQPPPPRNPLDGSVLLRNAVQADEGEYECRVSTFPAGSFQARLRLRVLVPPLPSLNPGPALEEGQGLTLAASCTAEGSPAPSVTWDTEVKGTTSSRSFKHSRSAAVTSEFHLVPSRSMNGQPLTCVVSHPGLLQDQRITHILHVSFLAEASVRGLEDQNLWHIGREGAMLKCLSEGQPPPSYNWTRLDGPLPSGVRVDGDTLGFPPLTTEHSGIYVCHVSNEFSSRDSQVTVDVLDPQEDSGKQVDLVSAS
Briefly: ELISA, antibody without cyno serum, plate coated with 0.2 µg/ml antigen, HRP goat anti-human IgG, OD450. The sheet does not say which of the two plates of Example 13 is drawn.

The target in assay [5] is T2, human Nectin-4. Nature of the assay: FACS on BT474 cells. As for the experimental part:
as §2, §3, §4
The source holds these as a separate data set.

In assay [6] the target is T2, human Nectin-4. Nature of the assay: FACS on BT474 cells. As for the experimental part: as §2, §3
The source holds these as a separate data set.

Assay [7] has as its target T4, His-tagged human NECTIN4. Briefly: ELISA, antibody without cyno serum, plate coated with 0.2 µg/ml antigen, HRP goat anti-human IgG, OD450. The sheet does not say which of the two plates of Example 13 is drawn. This is another data set of the same source.
The target in assay [8] is T2, human Nectin-4. Briefly: cell-based or functional assay.
The target in assay [9] is T2, human Nectin-4. Nature of the assay: FACS on BT474 cells. On the procedure: as §2, §3
The source holds these as a separate data set.

Read-outs that look alike come from different tables or passages of the source.

B1: 42D20 hz10 (antibody, V domains shown)
VH: QVQLQESGPGLVKPSETLSLTCTVSGFSLIDYGVSWIRQPPGKGLEWIGVIWGDGKIYYNSVLKSRVTISKDNSKSQVSLKLSSVTAADTAVYYCAKQGGLLFYAMDYWGQGTLVTVSS
VL: DIVMTQSPDSLAVSLGERATINCKSSQSLLNSYSQKNYLAWYQQKPGQPPKLLIYFASTRESGVPDRFSGSGSGTDFTLTISSLQAEDVAVYYCQQHYNTPFTFGAGTKLELKR
notes: Humanized
As to B1, the results for the binding result in assay [1] and in assay [3] were “no binding (tested: about 2.5 µg/ml (last point))” and “no binding (tested: 10 µg/ml)”, respectively. Besides, in [2], the EC50 was 0.0528 µg/mL. Moreover, in [4], the “EC50 (read off the curve)” value was about 0.1 µg/mL.

B2: Enfortumab (antibody, human IgG1, kappa, V domains shown)
VH: EVQLVESGGGLVQPGGSLRLSCAASGFTFSSYNMNWVRQAPGKGLEWVSYISSSSSTIYYADSVKGRFTISRDNAKNSLSLQMNSLRDEDTAVYYCARAYYYGMDVWGQGTTVTVSS
VL: DIQMTQSPSSVSASVGDRVTITCRASQGISGWLAWYQQKPGKAPKFLIYAASTLQSGVPSRFSGSGSGTDFTLTISSLQPEDFATYYCQQANSFPPTFGGGTKVEIKR
notes: also called control antibody Enfortumab
Turning to B2, the EC50 in assay [5] came out at 57.2 µg/mL; in [6], 98.8 µg/mL; in assay [2] it was 0.0503 µg/mL; in [9] it was 29.6 µg/mL. Also, the “EC50 (read off the curve)” value in [7] was about 0.1 µg/mL. For the same molecule, the binding result was “no binding (tested: about 2.5 µg/ml (last point))” in [1] and “no binding (tested: 10 µg/ml)” in assay [3]. Moreover, the “EC50 (ng/ml), inhibition of proliferation of BT474 cells” value in assay [8] was determined as 3.37 ng/mL. In addition, the “Percentage of cell killing at the highest concentration” value in assay [8] was determined as 43.3%.
